T1: Human CD3eg linker (human)
T1 construct: Single-chain construct; also called recombinant human CD3
T1 chain: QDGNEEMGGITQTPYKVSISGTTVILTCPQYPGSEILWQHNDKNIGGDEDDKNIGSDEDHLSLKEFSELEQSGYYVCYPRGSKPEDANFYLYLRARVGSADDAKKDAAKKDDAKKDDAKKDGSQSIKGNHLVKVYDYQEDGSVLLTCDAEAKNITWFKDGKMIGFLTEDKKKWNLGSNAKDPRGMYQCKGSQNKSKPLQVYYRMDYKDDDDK

B1: H183/L072 VL N53H (antibody, name in Kabat numbering, V domains shown)
VH: QVQLVESGGGLVQPGRSLRLSCAASGFTFSNAWMHWVRQAPGKGLEWVAQIKDKGNAYAAYYAPSVKGRFTISRDDSKNSIYLQMNSLKTEDTAVYYCHYVHYASASTVLPAFGVDAWGQGTTVTVSS
VL: DIVMTQSPLSLPVTPGEPASISCQASQELVHMNRNTYLHWYQQKPGQAPRLLIYKVSHRFPGVPDRFSGSGSGTDFTLKISRVEAEDVGVYYCAQGTSVPFTFGQGTKLEIK
B2: H183/L072 VL N53W (antibody, name in Kabat numbering, V domains shown)
VH: QVQLVESGGGLVQPGRSLRLSCAASGFTFSNAWMHWVRQAPGKGLEWVAQIKDKGNAYAAYYAPSVKGRFTISRDDSKNSIYLQMNSLKTEDTAVYYCHYVHYASASTVLPAFGVDAWGQGTTVTVSS
VL: DIVMTQSPLSLPVTPGEPASISCQASQELVHMNRNTYLHWYQQKPGQAPRLLIYKVSWRFPGVPDRFSGSGSGTDFTLKISRVEAEDVGVYYCAQGTSVPFTFGQGTKLEIK
B3: H183/L072 VL P56L (antibody, name in Kabat numbering, V domains shown)
VH: QVQLVESGGGLVQPGRSLRLSCAASGFTFSNAWMHWVRQAPGKGLEWVAQIKDKGNAYAAYYAPSVKGRFTISRDDSKNSIYLQMNSLKTEDTAVYYCHYVHYASASTVLPAFGVDAWGQGTTVTVSS
VL: DIVMTQSPLSLPVTPGEPASISCQASQELVHMNRNTYLHWYQQKPGQAPRLLIYKVSNRFLGVPDRFSGSGSGTDFTLKISRVEAEDVGVYYCAQGTSVPFTFGQGTKLEIK
B4: H183/L072 VL P56G (antibody, name in Kabat numbering, V domains shown)
VH: QVQLVESGGGLVQPGRSLRLSCAASGFTFSNAWMHWVRQAPGKGLEWVAQIKDKGNAYAAYYAPSVKGRFTISRDDSKNSIYLQMNSLKTEDTAVYYCHYVHYASASTVLPAFGVDAWGQGTTVTVSS
VL: DIVMTQSPLSLPVTPGEPASISCQASQELVHMNRNTYLHWYQQKPGQAPRLLIYKVSNRFGGVPDRFSGSGSGTDFTLKISRVEAEDVGVYYCAQGTSVPFTFGQGTKLEIK
B5: H183/L072 VL N53T (antibody, name in Kabat numbering, V domains shown)
VH: QVQLVESGGGLVQPGRSLRLSCAASGFTFSNAWMHWVRQAPGKGLEWVAQIKDKGNAYAAYYAPSVKGRFTISRDDSKNSIYLQMNSLKTEDTAVYYCHYVHYASASTVLPAFGVDAWGQGTTVTVSS
VL: DIVMTQSPLSLPVTPGEPASISCQASQELVHMNRNTYLHWYQQKPGQAPRLLIYKVSTRFPGVPDRFSGSGSGTDFTLKISRVEAEDVGVYYCAQGTSVPFTFGQGTKLEIK
B6: H183/L072 VL P56E (antibody, name in Kabat numbering, V domains shown)
VH: QVQLVESGGGLVQPGRSLRLSCAASGFTFSNAWMHWVRQAPGKGLEWVAQIKDKGNAYAAYYAPSVKGRFTISRDDSKNSIYLQMNSLKTEDTAVYYCHYVHYASASTVLPAFGVDAWGQGTTVTVSS
VL: DIVMTQSPLSLPVTPGEPASISCQASQELVHMNRNTYLHWYQQKPGQAPRLLIYKVSNRFEGVPDRFSGSGSGTDFTLKISRVEAEDVGVYYCAQGTSVPFTFGQGTKLEIK
B7: H183/L072 VL P56K (antibody, name in Kabat numbering, V domains shown)
VH: QVQLVESGGGLVQPGRSLRLSCAASGFTFSNAWMHWVRQAPGKGLEWVAQIKDKGNAYAAYYAPSVKGRFTISRDDSKNSIYLQMNSLKTEDTAVYYCHYVHYASASTVLPAFGVDAWGQGTTVTVSS
VL: DIVMTQSPLSLPVTPGEPASISCQASQELVHMNRNTYLHWYQQKPGQAPRLLIYKVSNRFKGVPDRFSGSGSGTDFTLKISRVEAEDVGVYYCAQGTSVPFTFGQGTKLEIK
B8: H183/L072 VL N53V (antibody, name in Kabat numbering, V domains shown)
VH: QVQLVESGGGLVQPGRSLRLSCAASGFTFSNAWMHWVRQAPGKGLEWVAQIKDKGNAYAAYYAPSVKGRFTISRDDSKNSIYLQMNSLKTEDTAVYYCHYVHYASASTVLPAFGVDAWGQGTTVTVSS
VL: DIVMTQSPLSLPVTPGEPASISCQASQELVHMNRNTYLHWYQQKPGQAPRLLIYKVSVRFPGVPDRFSGSGSGTDFTLKISRVEAEDVGVYYCAQGTSVPFTFGQGTKLEIK
B9: H183/L072 VL N53L (antibody, name in Kabat numbering, V domains shown)
VH: QVQLVESGGGLVQPGRSLRLSCAASGFTFSNAWMHWVRQAPGKGLEWVAQIKDKGNAYAAYYAPSVKGRFTISRDDSKNSIYLQMNSLKTEDTAVYYCHYVHYASASTVLPAFGVDAWGQGTTVTVSS
VL: DIVMTQSPLSLPVTPGEPASISCQASQELVHMNRNTYLHWYQQKPGQAPRLLIYKVSLRFPGVPDRFSGSGSGTDFTLKISRVEAEDVGVYYCAQGTSVPFTFGQGTKLEIK
B10: H183/L072 VL N53R (antibody, name in Kabat numbering, V domains shown)
VH: QVQLVESGGGLVQPGRSLRLSCAASGFTFSNAWMHWVRQAPGKGLEWVAQIKDKGNAYAAYYAPSVKGRFTISRDDSKNSIYLQMNSLKTEDTAVYYCHYVHYASASTVLPAFGVDAWGQGTTVTVSS
VL: DIVMTQSPLSLPVTPGEPASISCQASQELVHMNRNTYLHWYQQKPGQAPRLLIYKVSRRFPGVPDRFSGSGSGTDFTLKISRVEAEDVGVYYCAQGTSVPFTFGQGTKLEIK
B11: H183/L072 VL N53Q (antibody, name in Kabat numbering, V domains shown)
VH: QVQLVESGGGLVQPGRSLRLSCAASGFTFSNAWMHWVRQAPGKGLEWVAQIKDKGNAYAAYYAPSVKGRFTISRDDSKNSIYLQMNSLKTEDTAVYYCHYVHYASASTVLPAFGVDAWGQGTTVTVSS
VL: DIVMTQSPLSLPVTPGEPASISCQASQELVHMNRNTYLHWYQQKPGQAPRLLIYKVSQRFPGVPDRFSGSGSGTDFTLKISRVEAEDVGVYYCAQGTSVPFTFGQGTKLEIK
B12: H183/L072 VL P56D (antibody, name in Kabat numbering, V domains shown)
VH: QVQLVESGGGLVQPGRSLRLSCAASGFTFSNAWMHWVRQAPGKGLEWVAQIKDKGNAYAAYYAPSVKGRFTISRDDSKNSIYLQMNSLKTEDTAVYYCHYVHYASASTVLPAFGVDAWGQGTTVTVSS
VL: DIVMTQSPLSLPVTPGEPASISCQASQELVHMNRNTYLHWYQQKPGQAPRLLIYKVSNRFDGVPDRFSGSGSGTDFTLKISRVEAEDVGVYYCAQGTSVPFTFGQGTKLEIK
B13: H183/L072 VL P56F (antibody, name in Kabat numbering, V domains shown)
VH: QVQLVESGGGLVQPGRSLRLSCAASGFTFSNAWMHWVRQAPGKGLEWVAQIKDKGNAYAAYYAPSVKGRFTISRDDSKNSIYLQMNSLKTEDTAVYYCHYVHYASASTVLPAFGVDAWGQGTTVTVSS
VL: DIVMTQSPLSLPVTPGEPASISCQASQELVHMNRNTYLHWYQQKPGQAPRLLIYKVSNRFFGVPDRFSGSGSGTDFTLKISRVEAEDVGVYYCAQGTSVPFTFGQGTKLEIK
B14: H183/L072 VL N53M (antibody, name in Kabat numbering, V domains shown)
VH: QVQLVESGGGLVQPGRSLRLSCAASGFTFSNAWMHWVRQAPGKGLEWVAQIKDKGNAYAAYYAPSVKGRFTISRDDSKNSIYLQMNSLKTEDTAVYYCHYVHYASASTVLPAFGVDAWGQGTTVTVSS
VL: DIVMTQSPLSLPVTPGEPASISCQASQELVHMNRNTYLHWYQQKPGQAPRLLIYKVSMRFPGVPDRFSGSGSGTDFTLKISRVEAEDVGVYYCAQGTSVPFTFGQGTKLEIK
B15: H183/L072 VL N53S (antibody, name in Kabat numbering, V domains shown)
VH: QVQLVESGGGLVQPGRSLRLSCAASGFTFSNAWMHWVRQAPGKGLEWVAQIKDKGNAYAAYYAPSVKGRFTISRDDSKNSIYLQMNSLKTEDTAVYYCHYVHYASASTVLPAFGVDAWGQGTTVTVSS
VL: DIVMTQSPLSLPVTPGEPASISCQASQELVHMNRNTYLHWYQQKPGQAPRLLIYKVSSRFPGVPDRFSGSGSGTDFTLKISRVEAEDVGVYYCAQGTSVPFTFGQGTKLEIK
B16: H183/L072 VL N53P (antibody, name in Kabat numbering, V domains shown)
VH: QVQLVESGGGLVQPGRSLRLSCAASGFTFSNAWMHWVRQAPGKGLEWVAQIKDKGNAYAAYYAPSVKGRFTISRDDSKNSIYLQMNSLKTEDTAVYYCHYVHYASASTVLPAFGVDAWGQGTTVTVSS
VL: DIVMTQSPLSLPVTPGEPASISCQASQELVHMNRNTYLHWYQQKPGQAPRLLIYKVSPRFPGVPDRFSGSGSGTDFTLKISRVEAEDVGVYYCAQGTSVPFTFGQGTKLEIK
B17: H183/L072 VL N53K (antibody, name in Kabat numbering, V domains shown)
VH: QVQLVESGGGLVQPGRSLRLSCAASGFTFSNAWMHWVRQAPGKGLEWVAQIKDKGNAYAAYYAPSVKGRFTISRDDSKNSIYLQMNSLKTEDTAVYYCHYVHYASASTVLPAFGVDAWGQGTTVTVSS
VL: DIVMTQSPLSLPVTPGEPASISCQASQELVHMNRNTYLHWYQQKPGQAPRLLIYKVSKRFPGVPDRFSGSGSGTDFTLKISRVEAEDVGVYYCAQGTSVPFTFGQGTKLEIK
B18: H183/L072 VL P56I (antibody, name in Kabat numbering, V domains shown)
VH: QVQLVESGGGLVQPGRSLRLSCAASGFTFSNAWMHWVRQAPGKGLEWVAQIKDKGNAYAAYYAPSVKGRFTISRDDSKNSIYLQMNSLKTEDTAVYYCHYVHYASASTVLPAFGVDAWGQGTTVTVSS
VL: DIVMTQSPLSLPVTPGEPASISCQASQELVHMNRNTYLHWYQQKPGQAPRLLIYKVSNRFIGVPDRFSGSGSGTDFTLKISRVEAEDVGVYYCAQGTSVPFTFGQGTKLEIK
B19: H183/L072 VL P56A (antibody, name in Kabat numbering, V domains shown)
VH: QVQLVESGGGLVQPGRSLRLSCAASGFTFSNAWMHWVRQAPGKGLEWVAQIKDKGNAYAAYYAPSVKGRFTISRDDSKNSIYLQMNSLKTEDTAVYYCHYVHYASASTVLPAFGVDAWGQGTTVTVSS
VL: DIVMTQSPLSLPVTPGEPASISCQASQELVHMNRNTYLHWYQQKPGQAPRLLIYKVSNRFAGVPDRFSGSGSGTDFTLKISRVEAEDVGVYYCAQGTSVPFTFGQGTKLEIK
B20: H183/L072 VL P56H (antibody, name in Kabat numbering, V domains shown)
VH: QVQLVESGGGLVQPGRSLRLSCAASGFTFSNAWMHWVRQAPGKGLEWVAQIKDKGNAYAAYYAPSVKGRFTISRDDSKNSIYLQMNSLKTEDTAVYYCHYVHYASASTVLPAFGVDAWGQGTTVTVSS
VL: DIVMTQSPLSLPVTPGEPASISCQASQELVHMNRNTYLHWYQQKPGQAPRLLIYKVSNRFHGVPDRFSGSGSGTDFTLKISRVEAEDVGVYYCAQGTSVPFTFGQGTKLEIK

The assay addresses T1, Human CD3eg linker. Kind of assay: SPR; fold vs parent H183/L072.
B1: the “fold change of affinity” value came out at 1.2 fold.
For the molecule B2, the “fold change of affinity” value was 0.7 fold.
To B3 belongs 3.1 fold; to B4, 3.7 fold; to B5, 0.4 fold.
Consider B6, for which the “fold change of affinity” value came out at 3.4 fold.
Take B7: the “fold change of affinity” value stood at 5.6 fold.
To B8 belongs 0.3 fold; to B9, 0.6 fold.
With B10, the “fold change of affinity” value was 1.8 fold.
To B11 belongs 0.8 fold; to B12, 3 fold.
To B13 belongs 3.3 fold; to B14, 0.9 fold.
In the case of B15, the “fold change of affinity” value was determined as 0.9 fold.
To B16 belongs 0.6 fold.
As to B17, the “fold change of affinity” value worked out at 1.4 fold.
B18: the “fold change of affinity” value was found to be 3.1 fold.
With B19, the “fold change of affinity” value worked out at 4.1 fold.
To B20 belongs 2.9 fold.

Source of the values: patent US20210388087A1 (Chugai, published 2021).
